The target of one series is T1, Taz1 (Schizosaccharomyces pombe (fission …, UniProt P79005 1-663)).
T1 sequence: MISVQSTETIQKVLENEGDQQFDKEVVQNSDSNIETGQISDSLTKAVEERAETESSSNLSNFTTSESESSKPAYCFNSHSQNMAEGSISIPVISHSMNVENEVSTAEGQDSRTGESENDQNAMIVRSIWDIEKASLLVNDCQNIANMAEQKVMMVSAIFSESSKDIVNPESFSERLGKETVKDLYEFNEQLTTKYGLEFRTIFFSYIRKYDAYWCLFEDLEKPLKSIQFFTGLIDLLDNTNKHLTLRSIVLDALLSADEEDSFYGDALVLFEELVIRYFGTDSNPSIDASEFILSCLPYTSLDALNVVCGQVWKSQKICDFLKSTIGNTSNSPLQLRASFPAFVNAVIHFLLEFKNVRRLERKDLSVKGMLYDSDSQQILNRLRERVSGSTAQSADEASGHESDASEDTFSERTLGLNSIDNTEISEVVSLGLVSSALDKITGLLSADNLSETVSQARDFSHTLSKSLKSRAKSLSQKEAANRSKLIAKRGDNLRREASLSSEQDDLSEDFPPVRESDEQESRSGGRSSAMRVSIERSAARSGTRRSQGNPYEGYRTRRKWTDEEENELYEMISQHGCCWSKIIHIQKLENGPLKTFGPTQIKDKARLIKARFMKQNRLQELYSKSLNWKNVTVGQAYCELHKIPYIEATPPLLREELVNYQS
Kind of series: EMSA; EMSA with oligos heat-denatured and renatured in 50 mM KCl/40% PEG200 (Fig 5: 50 mM Tris-HCl pH 7.5 with KCl, NaCl or none); gel shift buffer 40 mM Hepes-KOH pH 7.6, 50 mM KCl, 1 mM EDTA, 10% glycerol, 0.01% Triton X-100; pull-down 30 min at room temperature; +++/++/+ = >50/>16/>6% shift at 1 nM Rif1. The note with it: protein: recombinant; tags: N-term His6, C-term FLAG3; chain copies: 2; label: 32P; blunt.

Series [1] addresses T2, Rif1 full-length (His6-Rif1-FLAG3) (Schizosaccharomyces pombe (fission …, UniProt Q96UP3 1-1400)).
T2 sequence: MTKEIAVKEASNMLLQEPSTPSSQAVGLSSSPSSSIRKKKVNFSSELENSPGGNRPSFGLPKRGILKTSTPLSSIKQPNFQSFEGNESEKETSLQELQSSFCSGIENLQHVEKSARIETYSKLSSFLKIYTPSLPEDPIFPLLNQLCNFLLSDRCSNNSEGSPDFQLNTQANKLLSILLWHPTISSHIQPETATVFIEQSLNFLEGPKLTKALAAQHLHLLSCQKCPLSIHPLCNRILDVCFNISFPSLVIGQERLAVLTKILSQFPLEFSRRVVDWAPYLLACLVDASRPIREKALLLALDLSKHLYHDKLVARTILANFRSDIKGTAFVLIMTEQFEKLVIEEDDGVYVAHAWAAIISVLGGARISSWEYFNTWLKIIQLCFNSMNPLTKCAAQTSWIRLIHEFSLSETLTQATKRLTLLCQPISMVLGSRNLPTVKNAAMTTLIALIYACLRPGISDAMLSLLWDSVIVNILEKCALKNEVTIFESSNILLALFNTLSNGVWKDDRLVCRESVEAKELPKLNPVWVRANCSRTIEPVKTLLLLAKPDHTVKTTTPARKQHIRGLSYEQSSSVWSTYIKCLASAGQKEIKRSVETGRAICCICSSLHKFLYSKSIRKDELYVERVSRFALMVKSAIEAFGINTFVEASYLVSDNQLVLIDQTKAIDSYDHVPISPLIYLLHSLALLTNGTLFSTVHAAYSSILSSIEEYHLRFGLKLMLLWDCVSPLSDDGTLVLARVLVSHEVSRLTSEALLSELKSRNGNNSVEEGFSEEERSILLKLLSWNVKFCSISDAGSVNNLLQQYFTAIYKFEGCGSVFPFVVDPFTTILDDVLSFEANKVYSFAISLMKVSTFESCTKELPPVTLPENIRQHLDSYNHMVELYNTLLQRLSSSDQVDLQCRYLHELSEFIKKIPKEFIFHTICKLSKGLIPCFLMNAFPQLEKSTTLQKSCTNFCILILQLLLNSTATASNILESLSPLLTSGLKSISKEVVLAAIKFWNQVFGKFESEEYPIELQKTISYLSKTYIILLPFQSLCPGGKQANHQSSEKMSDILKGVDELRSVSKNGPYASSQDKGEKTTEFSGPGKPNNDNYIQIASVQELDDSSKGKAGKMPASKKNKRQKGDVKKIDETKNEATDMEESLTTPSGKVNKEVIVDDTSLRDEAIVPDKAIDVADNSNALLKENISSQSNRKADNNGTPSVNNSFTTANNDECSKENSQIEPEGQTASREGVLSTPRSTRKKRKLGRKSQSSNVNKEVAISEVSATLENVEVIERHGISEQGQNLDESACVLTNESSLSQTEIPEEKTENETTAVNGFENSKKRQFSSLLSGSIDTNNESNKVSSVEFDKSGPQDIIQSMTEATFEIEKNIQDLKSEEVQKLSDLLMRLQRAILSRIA
Put plainly: EMSA; KCl; text: not bound very efficiently; EMSA with oligos heat-denatured and renatured in 50 mM KCl/40% PEG200 (Fig 5: 50 mM Tris-HCl pH 7.5 with KCl, NaCl or none); gel shift buffer 40 mM Hepes-KOH pH 7.6, 50 mM KCl, 1 mM EDTA, 10% glycerol, 0.01% Triton X-100; pull-down 30 min at room temperature; +++/++/+ = >50/>16/>6% shift at 1 nM Rif1. Conditions: protein: recombinant; tags: N-term His6, C-term FLAG3; label: 32P; hybrid G4.

The target in series [2] is T2, Rif1 full-length (His6-Rif1-FLAG3). Put plainly: EMSA; KCl; three repeats most efficient; EMSA with oligos heat-denatured and renatured in 50 mM KCl/40% PEG200 (Fig 5: 50 mM Tris-HCl pH 7.5 with KCl, NaCl or none); gel shift buffer 40 mM Hepes-KOH pH 7.6, 50 mM KCl, 1 mM EDTA, 10% glycerol, 0.01% Triton X-100; pull-down 30 min at room temperature; +++/++/+ = >50/>16/>6% shift at 1 nM Rif1. Conditions: protein: recombinant; tags: N-term His6, C-term FLAG3; label: 32P.

For series [3] the target is unchanged. Put plainly: EMSA; EMSA with oligos heat-denatured and renatured in 50 mM KCl/40% PEG200 (Fig 5: 50 mM Tris-HCl pH 7.5 with KCl, NaCl or none); gel shift buffer 40 mM Hepes-KOH pH 7.6, 50 mM KCl, 1 mM EDTA, 10% glycerol, 0.01% Triton X-100; pull-down 30 min at room temperature; +++/++/+ = >50/>16/>6% shift at 1 nM Rif1. The note with it: protein: recombinant; tags: N-term His6, C-term FLAG3; label: 32P.

Series [4] shares this target. Put plainly: EMSA; KCl; text: poor binder; EMSA with oligos heat-denatured and renatured in 50 mM KCl/40% PEG200 (Fig 5: 50 mM Tris-HCl pH 7.5 with KCl, NaCl or none); gel shift buffer 40 mM Hepes-KOH pH 7.6, 50 mM KCl, 1 mM EDTA, 10% glycerol, 0.01% Triton X-100; pull-down 30 min at room temperature; +++/++/+ = >50/>16/>6% shift at 1 nM Rif1. Conditions: protein: recombinant; tags: N-term His6, C-term FLAG3; label: 32P; hybrid G4. For orientation: A gel shift assay detects complexes by their altered migration in electrophoresis.

B1: Taz1BS (dsDNA)
DNA 1: TTACAGGTTACAGGTTACAGG
DNA 2: CCTGTAACCTGTAACCTGTAA
By Kd is commonly meant the constant that tells how readily two partners part at equilibrium. With B1, the Kd in the series with Taz1 was roughly 30 nM. Regarding TAGGGTTAGGGTTAGGGTTAGGG (structured_DNA) [Htelo1], the binding result in series [1] is “no binding”. For the molecule AGTGGGGAGTGGGGAGTGGGG (structured_DNA) [(AGTGGGG)3], the binding result in series [2] was “binds”. As to AGTGGGGGAGTGGGGGAGTGGGGG (structured_DNA) [(AGTGGGGG)3], in series [2], the binding result is on record as “binds”. Take GGGGGGGGGG (structured_DNA) [G10]: the binding result in series [3] is listed as “binds”.

For TAGGGTTAGGGTTAGGGTTAGGGTT (structured_DNA) [Htelo2], in series [4], the binding result is given as “no binding”.

For the origin of these results see paper PMC6565636, “Rif1 promotes association of G-quadruplex (G4) by its specific G4 binding and oligomerization activities”.
